From the supplement of paper PMC7877785
± gives the uncertainty stated by the source.

Test: self-splicing fitness, log relative to wild type (ln ratio); higher = more splicing; Tetrahymena group I intron in knt gene, E. coli kanamycin selection, DiMSum; sequences stand for … in CUCUCU…GGAGGGAAAAGUUAUCAGGCAUGCACCUGGUAGCUAGUCUUUAAACCAAUAGAUUGCAUCGGUUUAAAAGGCAAGACCGUCAAAUUGCGGGAAAGGGGUCAACAGCCGUUCAGUACCAAGUCUCAGGGGAAACUUUGAGAUGGCCUUGCAAAGGGUAUGGUAAUAAGCUGACGGACAUGGUCCUAACCACGCAGCCAAGUCCUAAGUCAACAGAUCUUCUGUUGAUAUGGAUGCAGUUCACAGACUAAAUGUCGGUCGGGGAAGAUGUAUUCUUCUCAUAAGAUAUAGUCGGACCUCUCCUUAAUGGGAGCUAGCGGAUGAAGUGAUGCAACACUGGAGCCGCUGGGAACUAAUUUGUAUGCGAAAGUAUAUUGAUUAGUUUUGGAGUACUCGUGGUCG
In short: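 Pooled colonies went to amplicon sequencing on an Illumina HiSeq 2500 after six replicate transformations. The plates were LB agar with 100 μg/mL carbenicillin, 50 μM IPTG and 0.2% rhamnose, with or without 25 μg/mL kanamycin, incubated overnight at 37°C or 30°C. The E. coli BL21(DE3) library had all eight P1ex-region intron nucleotides randomised, the intron placed in the knt kanamycin-resistance gene on pET-22b(+). DiMSum fitness is the error-weighted combination of replicate fold changes, kanamycin against none, normalised to wild type.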

Sequence | self-splicing fitness (ln) (30 °C) | self-splicing fitness (ln) (37 °C)
UGUAAGCAAUAUUACGCCUU | -1.69 ± 0.35 | -1.5 ± 0.43
UGUAAGCAAUAUUACGCGAC | -2.37 ± 0.27 | -2.4 ± 0.36
UGUAAGCAAUAUUACGCGCG | -0.498 ± 0.11 | -0.329 ± 0.15
UGUAAGCAAUAUUACGCUUU | -3.09 ± 0.26 | -2.72 ± 0.27
UGUAAGCAAUAUUACGGAAA | -1.83 ± 0.17 | -1.67 ± 0.2
UGUAAGCAAUAUUACGGAAC | -2.78 ± 0.27 | -1.77 ± 0.26
UGUAAGCAAUAUUACGGAGG | -3.23 ± 0.21 | -3.5 ± 0.33
UGUAAGCAAUAUUACGGCGA | -0.0897 ± 0.085 | -0.0127 ± 0.11
UGUAAGCAAUAUUACGGGUC | -3.01 ± 0.41 | –
UGUAAGCAAUAUUACGGGUU | -3.86 ± 0.27 | -2 ± 0.2
UGUAAGCAAUAUUACGUAAU | -2.84 ± 0.095 | -1.33 ± 0.12
UGUAAGCAAUAUUACGUAGG | -1.71 ± 0.15 | -0.712 ± 0.2
UGUAAGCAAUAUUACGUCAC | -2.9 ± 0.19 | -2.28 ± 0.25
UGUAAGCAAUAUUACGUCAU | -2.39 ± 0.16 | -1.28 ± 0.19
UGUAAGCAAUAUUACGUCGG | -1.67 ± 0.13 | -1.95 ± 0.14
UGUAAGCAAUAUUACGUGAA | -1.8 ± 0.16 | 0.0061 ± 0.14
UGUAAGCAAUAUUACGUGCU | -1.48 ± 0.13 | -0.148 ± 0.16
UGUAAGCAAUAUUACGUUAU | -3.54 ± 0.22 | -2.73 ± 0.26
UGUCAGCAAUAUUACGACGG | -1.06 ± 0.076 | -0.98 ± 0.092
UGUCAGCAAUAUUACGAGAA | -1.43 ± 0.27 | -1.48 ± 0.22
UGUCAGCAAUAUUACGAUCC | -1.48 ± 0.086 | -0.717 ± 0.089
UGUCAGCAAUAUUACGAUUU | -0.0817 ± 0.061 | 0.461 ± 0.082
UGUCAGCAAUAUUACGCUAG | -0.41 ± 0.061 | -0.214 ± 0.077
UGUCAGCAAUAUUACGCUCA | 0.0629 ± 0.11 | -0.236 ± 0.11
UGUCAGCAAUAUUACGCUCG | -0.552 ± 0.16 | 0.987 ± 0.32

Sequence | self-splicing fitness (ln) (30 °C) | self-splicing fitness (ln) (37 °C)
UGUCAGCAAUAUUACGGCCA | -0.139 ± 0.11 | -0.162 ± 0.12
UGUCAGCAAUAUUACGGGGA | -1.32 ± 0.061 | -0.476 ± 0.07
UGUCAGCAAUAUUACGUCAC | -3.9 ± 0.39 | -3.29 ± 0.37
UGUCAGCAAUAUUACGUCAU | -1.79 ± 0.1 | -1.38 ± 0.14
UGUCAGCAAUAUUACGUCGU | -1.49 ± 0.1 | -0.759 ± 0.11
UGUCAGCAAUAUUACGUGGC | -4.53 ± 0.31 | -3.13 ± 0.31
UGUCAGCAAUAUUACGUUAA | -0.609 ± 0.1 | -0.411 ± 0.11
UGUCAGCAAUAUUACGUUAC | -3.4 ± 0.27 | -2.77 ± 0.43
UGUGAGCAAUAUUACGAAAG | -2.98 ± 0.18 | -2.69 ± 0.27
UGUGAGCAAUAUUACGAGCG | -1.29 ± 0.12 | -0.066 ± 0.12
UGUGAGCAAUAUUACGAUAA | -2.33 ± 0.16 | -1.92 ± 0.21
UGUGAGCAAUAUUACGAUAG | -2.74 ± 0.24 | -0.644 ± 0.2
UGUGAGCAAUAUUACGAUGU | -3.05 ± 0.18 | -2.08 ± 0.24
UGUGAGCAAUAUUACGCAUA | -1.6 ± 0.23 | -2.46 ± 0.33
UGUGAGCAAUAUUACGGCUC | -3.06 ± 0.44 | -3.18 ± 0.47
UGUGAGCAAUAUUACGGUAG | -2.45 ± 0.18 | -1.79 ± 0.21
UGUGAGCAAUAUUACGGUGU | -3 ± 0.31 | -2.84 ± 0.24
UGUGAGCAAUAUUACGUACG | -0.814 ± 0.1 | -0.164 ± 0.12
UGUGAGCAAUAUUACGUCGC | -1.15 ± 0.21 | –
UGUGAGCAAUAUUACGUUGU | -3.15 ± 0.25 | -3.13 ± 0.47
UGUUAGCAAUAUUACGACUU | -0.357 ± 0.11 | 0.12 ± 0.12
UGUUAGCAAUAUUACGAGUC | -4.22 ± 0.42 | –
UGUUAGCAAUAUUACGAGUU | -3.66 ± 0.28 | -1.85 ± 0.19
UGUUAGCAAUAUUACGAUAG | -2.07 ± 0.26 | 0.173 ± 0.17
UGUUAGCAAUAUUACGAUCG | -0.427 ± 0.26 | -0.0339 ± 0.28

Sequence | self-splicing fitness (ln) (30 °C) | self-splicing fitness (ln) (37 °C)
UGUUAGCAAUAUUACGAUGU | -1.78 ± 0.12 | -0.548 ± 0.13
UGUUAGCAAUAUUACGAUUC | -2.39 ± 0.18 | -0.83 ± 0.18
UGUUAGCAAUAUUACGCACU | -0.724 ± 0.1 | -0.553 ± 0.12
UGUUAGCAAUAUUACGCGAU | -3.44 ± 0.47 | -1.9 ± 0.4
UGUUAGCAAUAUUACGCGCC | -1.13 ± 0.14 | -0.207 ± 0.24
UGUUAGCAAUAUUACGCGGC | – | -3.46 ± 0.29
UGUUAGCAAUAUUACGCUGU | -2.07 ± 0.23 | -0.914 ± 0.2
UGUUAGCAAUAUUACGCUUA | -1.73 ± 0.18 | -0.323 ± 0.21
UGUUAGCAAUAUUACGGAAG | -3.18 ± 0.3 | -1.37 ± 0.17
UGUUAGCAAUAUUACGGACG | -0.811 ± 0.15 | -0.257 ± 0.17
UGUUAGCAAUAUUACGGCGG | -0.72 ± 0.09 | -0.356 ± 0.1
UGUUAGCAAUAUUACGGGAU | -1.94 ± 0.23 | –
UGUUAGCAAUAUUACGGGGC | -3.37 ± 0.34 | -3.32 ± 0.46
UGUUAGCAAUAUUACGGGUC | -2.97 ± 0.44 | -1.53 ± 0.3
UGUUAGCAAUAUUACGGUCU | -1.33 ± 0.09 | -0.963 ± 0.1
UGUUAGCAAUAUUACGUAUA | -1.7 ± 0.12 | -0.458 ± 0.11
UGUUAGCAAUAUUACGUAUG | -0.871 ± 0.13 | -0.234 ± 0.17
UGUUAGCAAUAUUACGUCAA | -1.27 ± 0.12 | -1.2 ± 0.11
UGUUAGCAAUAUUACGUUCA | 0.071 ± 0.12 | -0.114 ± 0.14
UUAAAGCAAUAUUACGAAUC | -3.58 ± 0.26 | -1.79 ± 0.16
UUAAAGCAAUAUUACGACAC | -1.54 ± 0.18 | -0.0824 ± 0.22
UUAAAGCAAUAUUACGAGCA | -0.0954 ± 0.082 | 0.177 ± 0.11
UUAAAGCAAUAUUACGAGUA | -1.08 ± 0.096 | -0.715 ± 0.11
UUAAAGCAAUAUUACGAUAC | -1.57 ± 0.13 | -0.384 ± 0.16
UUAAAGCAAUAUUACGAUUC | -1.07 ± 0.1 | -0.514 ± 0.11

Sequence | self-splicing fitness (ln) (30 °C) | self-splicing fitness (ln) (37 °C)
UUAAAGCAAUAUUACGCAAC | -3.92 ± 0.25 | -1.75 ± 0.14
UUAAAGCAAUAUUACGCACA | 0.245 ± 0.098 | -0.401 ± 0.12
UUAAAGCAAUAUUACGCUAA | -0.626 ± 0.1 | -0.111 ± 0.12
UUAAAGCAAUAUUACGCUAG | -0.313 ± 0.092 | 0.141 ± 0.11
UUAAAGCAAUAUUACGCUCU | -0.795 ± 0.15 | 0.21 ± 0.14
UUAAAGCAAUAUUACGCUUU | -4.36 ± 0.35 | -1.94 ± 0.24
UUAAAGCAAUAUUACGGCCC | -1.67 ± 0.17 | 0.305 ± 0.23
UUAAAGCAAUAUUACGGCUC | -0.0999 ± 0.18 | 0.714 ± 0.23
UUAAAGCAAUAUUACGGGCA | -0.351 ± 0.12 | 0.329 ± 0.16
UUAAAGCAAUAUUACGGUCC | – | -1.2 ± 0.36
UUAAAGCAAUAUUACGGUCU | -0.805 ± 0.074 | -0.3 ± 0.098
UUAAAGCAAUAUUACGUAAC | -2.67 ± 0.17 | -1.62 ± 0.2
UUAAAGCAAUAUUACGUCAU | -1.94 ± 0.18 | -0.671 ± 0.17
UUAAAGCAAUAUUACGUCGG | -0.114 ± 0.074 | 0.43 ± 0.091
UUAAAGCAAUAUUACGUCGU | -1.76 ± 0.11 | -0.737 ± 0.12
UUAAAGCAAUAUUACGUGCA | -0.0172 ± 0.1 | 0.542 ± 0.13
UUAAAGCAAUAUUACGUGGU | -3.26 ± 0.12 | -2.73 ± 0.15
UUAAAGCAAUAUUACGUGUA | -0.993 ± 0.066 | 0.0738 ± 0.08
UUAAAGCAAUAUUACGUUUC | -3.92 ± 0.39 | -1.18 ± 0.31
UUACAGCAAUAUUACGAACG | -0.834 ± 0.1 | -0.112 ± 0.13
UUACAGCAAUAUUACGAAGA | -1.25 ± 0.15 | -0.992 ± 0.15
UUACAGCAAUAUUACGAAUU | -3.13 ± 0.22 | -3.1 ± 0.24
